# In article PMC4742745 (The Journal of Biological Chemistry, 2015):
# T1: recombinant human wild type LCAT protein (lecithin-cholesterol acyltransferase) (human, UniProt P04180 25-440)
# T1 sequence (looked up): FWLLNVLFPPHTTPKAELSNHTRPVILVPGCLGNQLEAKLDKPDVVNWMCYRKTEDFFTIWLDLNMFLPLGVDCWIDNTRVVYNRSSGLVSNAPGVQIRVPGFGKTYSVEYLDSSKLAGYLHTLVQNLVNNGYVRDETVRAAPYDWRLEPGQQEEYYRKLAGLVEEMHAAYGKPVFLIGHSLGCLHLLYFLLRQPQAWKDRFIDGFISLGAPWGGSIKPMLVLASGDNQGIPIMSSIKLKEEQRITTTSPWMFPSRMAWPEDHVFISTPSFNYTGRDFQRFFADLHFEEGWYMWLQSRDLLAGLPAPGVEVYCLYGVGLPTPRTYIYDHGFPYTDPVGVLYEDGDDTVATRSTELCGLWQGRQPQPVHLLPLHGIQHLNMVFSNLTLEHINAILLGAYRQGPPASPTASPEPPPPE
# B1: 27C3, fully human anti-human LCAT agonistic monoclonal antibody (antibody, V domains shown)
# VH: QVQLQESGPGLVKPSQTLSLTCTVSGASISSGGYNWSWIRQHPGKGLEWIGYIYYSGSTYYNPSLKSRVTISVDTSKNQFSLKLSSVTAADTAVYYCARERGYCSSTSCSRVMDVWGQGTTVTVSS
# VL: SSELTQDPAVSVALGQTVRITCQGDSLRSYYASWYQQKPGQAPVLVIYGKNNRPSGIPDRFSGSSSGNTASLTITGAQAEDEADYYCNSRDNIGNHQVFGGGTKLTVLG
# notes: VH of 27C3; VL of 27C3 (lambda); Human IgG2 with lambda light chain; a possible N-linked glycosylation site in heavy chain CDR1; also called 27C3 mAb; 27C3-huIgG2; source: XenoMouse hybridoma, purified from clonal hybridoma exhaust supernatants
# B2: 18E5, fully human anti-human LCAT agonistic monoclonal antibody (antibody, V domains shown)
# VH: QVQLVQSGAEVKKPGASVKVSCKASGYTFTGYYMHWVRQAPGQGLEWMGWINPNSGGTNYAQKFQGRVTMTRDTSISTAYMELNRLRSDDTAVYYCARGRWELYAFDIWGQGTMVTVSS
# VL: EIVLTQSPGTLSLSPGERATLSCRASQSVSGSYLTWYQQKPGQAPRLLIYGASSRATGIPDRFSGSGSGTDFTLTISRLEPEDFAMYYCQQYGGSPPFTFGPGTKVDIKR
# notes: VH of 18E5; VL of 18E5 (kappa); Human IgG with kappa light chain (the light chain was amplified with a primer to the human kappa constant region); also called 18E5 mAb; source: XenoMouse hybridoma, purified from clonal hybridoma exhaust supernatants
# Legend:
# [1] = biological target: T1, recombinant human wild type LCAT …; experiment: cell-based or functional assay
# [2] = biological target: T1, recombinant human wild type LCAT …; experiment: SPR; Biacore 3000, 25 °C, HBS-EP (10 mM HEPES pH 7.4, 150 mM NaCl, 3.0 mM EDTA, 0.05% surfactant P20); mAb captured (100 RU) on goat anti-human IgG Fc amine-coupled to a CM5 chip; LCAT flowed over (human 100 nM to 412 pM, cynomolgus 111 nM to 457 pM, 3-fold dilutions); 1:1 binding model, KD = kd/ka; conditions: both partners purified
Binder,"increase of the cholesterol esterification activity of native LCAT by 27C3, apoAI-proteoliposomes as substrate [1] [fold]",Kd [2] [nM],koff [2] [s⁻¹],kon [2] [M⁻¹ s⁻¹]
B1,3,1.32,–,–
B2,–,1.01,0.000133,132000
